± gives the uncertainty stated by the source.

We go through 104 substances from the supplement of paper PMC12042874.

A short description of this data set: amyloid nucleation score (Sup35N fusion, yeast selection) (log enrichment); library NNK2; higher = more nucleation; inactive = no reads after selection. A digest of the protocol:
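Growth for 7 days at 30°C on medium lacking adenine and uracil followed a 24-hour induction with 100 μM copper sulfate of psi-negative yeast expressing peptides of 20 random codons fused to Sup35N. Input and output plasmid inserts were sequenced with Illumina, and sequences with under 100 input reads were excluded. Nucleation score is the DiMSum log enrichment of output over input reads, centred on the mode score of non-aggregating sequences.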
With YVATMGKGLNYLSCLEDNAA, the amyloid nucleation score was 0.282 ± 0.56.
GLVGPSI yielded an amyloid nucleation score of -0.29 ± 0.48.
YFNFIPGANRHDVSHFYGSY registered an amyloid nucleation score of 0.299 ± 0.21.
In the case of SGVIHSVFVWKCLITGGM, the amyloid nucleation score is -0.711 ± 0.38.
Turning to CKLTATCQSQMTEIGLGSFA, the amyloid nucleation score came to 3.62 ± 0.046.
CLCGPRIGLSVFNYVYFGMG: the amyloid nucleation score was 4.2 ± 0.046.
The result for NGFVSSSRSFICFRWKWRYY reads 0.255 ± 1.1.
For DFAGSKDDWTSQMMGVLDGL, the amyloid nucleation score was -0.689 ± 0.44.
For the substance VCYIPYMLRSHLNALTFLSV, the amyloid nucleation score is -0.492 ± 0.76.
Take HLLPWMRVLYTYVCSNIQMF: the amyloid nucleation score was -0.45 ± 0.36.
KNINWILNAGSMLVSFYRPW came in with an amyloid nucleation score of 7.328 ± 0.065.
Consider CGFFKVRENGFCGFKKMSFS, for which the amyloid nucleation score was -1.12 ± 1.1.
As for QFHFK, the figure is 0.036 ± 0.35; as for LFCRSSC, “inactive”.
In the case of SLKLLYKMKLRSGQWAHIYR, the amyloid nucleation score is 0.03 ± 0.43.
The result for VCGGVRYYLNTFYIKR reads 7.566 ± 0.054.
Turning to KGALCLSV, the amyloid nucleation score was -0.148 ± 0.39.
With VKVPYMLARGLDQKGTRRWQ, the amyloid nucleation score amounted to 8.102 ± 0.064.
For LPVGPLVRDNTWHRRVQRWL, the amyloid nucleation score stood at 1.11 ± 0.29.
CVFVPIKLGGDGLTVYLKCI had an amyloid nucleation score of -0.996 ± 0.45.
The substance GKMPIRNNKVLLKRSATNLC had an amyloid nucleation score of 5.63 ± 0.067.
In turn, SGFMLKWCKY registered an amyloid nucleation score of 0.874 ± 0.55.
CYFSGSVSRTSVRLVLLSNG: the amyloid nucleation score was -0.573 ± 1.1.
Regarding MTSLGVPNAYCEGNGAWYHR, the amyloid nucleation score was determined as 0.321 ± 0.21.
On to RSCSWLLIYRIVILVG, for which the amyloid nucleation score result was “inactive”.
Substance EPFSNEWWLMGVRPHLICRV showed an amyloid nucleation score of 0 ± 0.37.
IERHIYGMSDAVLGVD: the amyloid nucleation score was -0.493 ± 1.1.
With SEKGKEYSSVDMGQNGNTNM, the amyloid nucleation score was -0.829 ± 0.63.
As for NDTWR, the figure is 3.68 ± 0.049; as for RRWDHRIHGILSISDIIFLR, “inactive”; as for YIWNCDSDSIVPLLL, “inactive”.
With HMSRTPQAVRTSHPRVKNRI, the amyloid nucleation score was -0.026 ± 0.26.
Substance CEFALYAFWCCIYLRFNKYS displayed an amyloid nucleation score of -0.606 ± 0.44.
The substance SDFIAGVKLSRNFDGRG had an amyloid nucleation score of -0.097 ± 1.1.
MSRKWGGSKRCNGCPPKLVQ gave an amyloid nucleation score of 1.08 ± 0.22.
Take RYSFD: the amyloid nucleation score is -0.588 ± 1.1.
For KQHVRMYWIAALAPMSGRGW, the amyloid nucleation score is 4.448 ± 0.042.
LVRMIYTYSVRSDSVSFKSF gave an amyloid nucleation score of -0.132 ± 0.38.
On to TIYHSGRCLRKKGRELW, for which the amyloid nucleation score was -0.139 ± 0.37.
The result for VLYSRVLDGRESTNLGRL reads “inactive”.
With LSILCGDCSDGRS, the amyloid nucleation score is -0.245 ± 0.2.
WYLYFFVFLLHMNRNLFLVL displayed an amyloid nucleation score of -1.63 ± 0.55.
FLFLCGTDTFASRNPGRGKG registered an amyloid nucleation score of 0.269 ± 0.51.
TMLFTALDASHWG displayed an amyloid nucleation score of 6.696 ± 0.05.
The result for LYFDVTQ reads -0.611 ± 0.32; that for PVRCMIAHNCLIFWLVWTVV, -0.154 ± 0.25; that for FVYQCMCFNADLCFKFRLCS, 7.883 ± 0.065.
Turning to KTGYINCSIMDYMV, the amyloid nucleation score result was “inactive”.
The result for YLEFSPTSITWGAPLERYST reads “inactive”; that for TSRLHNFATRIIVCYRLLMQ, -0.525 ± 1.1; that for LCACIELSNKMLLTFNSNVK, -0.517 ± 0.32.
RLCGV had an amyloid nucleation score of -1.17 ± 0.55.
Take KYGDNSMYLMLLMVCYKGAC: the amyloid nucleation score was -0.622 ± 1.1.
The result for NTTMWGHVYMHLANMYTEFC reads “inactive”; that for GTNKAYFNASFMD, -0.875 ± 0.44; that for PIIIDDLMYLGDVDLTMFGE, -0.234 ± 0.74.
In the case of LTSFGDEC, the amyloid nucleation score was -0.153 ± 1.1.
Turning to LIYVATMWGNHSFYDLWDMQ, the amyloid nucleation score is 0.112 ± 0.21.
With KRRSNSTILGPINSPRVAEG, the amyloid nucleation score was -0.258 ± 0.42.
The result for SQMYGLAYVCRQ reads 6.28 ± 0.076; that for FHFKLRGWPGRGVTSMGS, -0.873 ± 0.62; that for SRLAY, “inactive”.
The result for WASWRSYSMWLDLLCFRSRG reads 0.155 ± 0.33; that for INVPCFRLKSSVGVISLQGT, 0.205 ± 0.26.
In the case of GCDLYL, the amyloid nucleation score is -0.256 ± 0.79.
For the substance CWARMWGYSKCHSRVFSYMS, the amyloid nucleation score was -1.1 ± 0.55.
In the case of VSSPCGRFSFNNNGGKVWTW, the amyloid nucleation score is -0.111 ± 0.61.
In the case of GIHCGR, the amyloid nucleation score was 3.24 ± 0.06.
CEVFYSVGRSK showed an amyloid nucleation score of -0.633 ± 1.1.
SFNTLCLRKC: the amyloid nucleation score is -0.65 ± 0.37.
In turn, VIKTFVILDVYAGLSCQC registered an amyloid nucleation score of 1.25 ± 0.34.
In turn, LGYMVVK registered an amyloid nucleation score of -1.35 ± 0.75.
In turn, CLVINSIKVFYARVGTSYKF yielded an amyloid nucleation score of 2.01 ± 0.19.
Consider QMAINAGRRRRHAEYGLRNS, for which the amyloid nucleation score worked out at 0.684 ± 0.57.
KLSGC had an amyloid nucleation score of 0.265 ± 1.1.
On to GVGSCTRQLWRISRSTPLKL, for which the amyloid nucleation score came out at 2.65 ± 0.069.
The result for AISPVLC reads 1.9 ± 0.43; that for LNNIFDLQYWQLWMSRQVKS, 0.809 ± 0.14; that for RLMVWSSL, 1.87 ± 0.38.
Take VFIMRISCY: the amyloid nucleation score is -0.424 ± 1.1.
The result for VSCYACREFMRLIVISGCLC reads 3.69 ± 0.042; that for IARRLTMGLTRMM, 1.56 ± 0.18; that for VNWVGLSLKIRGYFTVSTWR, -0.141 ± 0.54.
The substance STSIPCSEHDFVCYHMVCGF registered an amyloid nucleation score of -0.652 ± 0.37.
On to FWEKSSKVFW, for which the amyloid nucleation score is 3.33 ± 0.13.
In turn, NLPLL came in with an amyloid nucleation score of -0.027 ± 0.54.
Substance FRKWNSS showed an amyloid nucleation score of 4.08 ± 0.072.
As for RTMFNLHADCERNLFWFGGW, the figure is 5.13 ± 0.065; as for VYFSQDQFSYYFTRVESVEV, -0.191 ± 0.45.
Consider GYIYPNRIHNLYVGTMSVTV, for which the amyloid nucleation score came out at 5.43 ± 0.093.
As for VHDFTRNRKWWDNLWSDRSM, the figure is 0.399 ± 0.47.
As for ASFMPLFGGLGFLQKNEITM, the figure is 3.7 ± 0.077; as for CLAVIQWFPCIVDMGLECGF, 2.96 ± 0.049; as for DCLICFKDICNFENNEMIGA, -0.556 ± 0.2.
LSYVWYTQIARPGNSGFNLL showed an amyloid nucleation score of 2.12 ± 0.14.
As for NNLCQ, the figure is -0.1 ± 0.32; as for ARLLSG, 0.626 ± 0.5.
For the substance IFRIWRTRGRRSRFVSIEIG, the amyloid nucleation score is -0.802 ± 0.41.
With RWMRTSAGGCGSKVVWNLLG, the amyloid nucleation score stood at 0.682 ± 0.24.
For the substance VTTVRSPILLTLRTVPF, the amyloid nucleation score was found to be 0.425 ± 0.38.
The result for DFYSNYILLRSSP reads -1.84 ± 1; that for SFGVGEFDVNYLMERRF, -0.066 ± 0.4; that for TFRCVVRPLGMRSVLMAGSG, 0.852 ± 0.47.
In turn, ITNAYGLIPTNFLCYAFCVI registered an amyloid nucleation score of 7.958 ± 0.038.
